Results as given in article PMC11093223 (2024).

Columns and labels:
[1] = molecular target: TBC1D23 C-terminal domain (mouse, UniProt Q8K0F1 559-684); assay: ITC
[2] = molecular target: TBC1D23 C-terminal domain K672A (mouse, UniProt Q8K0F1 559-677, K672A); assay: ITC
Chain of TBC1D23 C-terminal domain K672A (Q8K0F1 559-677 K672A): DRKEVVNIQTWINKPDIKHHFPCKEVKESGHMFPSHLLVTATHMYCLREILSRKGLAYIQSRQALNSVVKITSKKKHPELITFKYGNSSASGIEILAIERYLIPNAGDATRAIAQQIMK

Chain of TBC1D23 C-terminal domain (Q8K0F1 559-684): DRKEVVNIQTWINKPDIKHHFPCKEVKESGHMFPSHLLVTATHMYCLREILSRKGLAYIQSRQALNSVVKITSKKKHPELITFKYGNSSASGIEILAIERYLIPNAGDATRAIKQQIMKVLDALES

Row | Kd [1] [µM] | Kd [2] [µM] | Binder
1 | 10.3 | – | DDNTLYHAGFTED [STX16 R216A]
2 | – | 27.5 | DDNTLYHRGFTED [syntaxin-16 (209–221) peptide]
3 | > 200 | – | AANTLYHRGFTED [STX16 DD209-210AA]
